Patent publication US20240294623A1

Target: antigen of FIG. 44 (not named)
Test: SPR (Biacore), Fab, FIG. 44

fold longer bound than the reference antibody: > 50 fold
t1/2: > 2.17 h
B1: Ab46 Fab (Fab, V domains shown)
VH: EVQLLESGGGLVQPGGSLRLSCAASGFTFADYAMTWVRQAPGKGLEWVSAISGSGAATYFADSVKGRFTISRDNSKNTLYLQMNSLRAEDTAVYYCARVSSGHWDYDYWGQGTLVTVSS
VL: DIQLTQSPSSLSASVGDRVTITCRASQSISSYLNWYQQKPGKAPKLLIYAASGLESGVPSRFSGSGSGTDFTLTISSLQPEDFATYYCQQTYGVPLTFGGGTKVEIK
